T1: monkey TIM-3 on CHOK1 stable cell line (CHOK1-cTIM-3) (monkey)
T1 chain: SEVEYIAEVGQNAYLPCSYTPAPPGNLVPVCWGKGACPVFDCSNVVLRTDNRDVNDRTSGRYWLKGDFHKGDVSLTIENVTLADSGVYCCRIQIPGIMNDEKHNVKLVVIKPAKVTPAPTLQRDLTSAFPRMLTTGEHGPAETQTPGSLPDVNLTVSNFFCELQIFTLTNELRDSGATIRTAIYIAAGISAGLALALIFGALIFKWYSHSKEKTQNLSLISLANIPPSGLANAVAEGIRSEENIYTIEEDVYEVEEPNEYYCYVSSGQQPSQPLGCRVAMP

T2: murine TIM-3 extracellular domain protein with hFc tag (mTIM-3-hFc) (mouse, UniProt Q8VIM0 29-191)
T2 construct: also called mouse TIM-3 extracellular domain protein; not shown: human IgG Fc fragment (hFc) of the pCpC vector
T2 chain: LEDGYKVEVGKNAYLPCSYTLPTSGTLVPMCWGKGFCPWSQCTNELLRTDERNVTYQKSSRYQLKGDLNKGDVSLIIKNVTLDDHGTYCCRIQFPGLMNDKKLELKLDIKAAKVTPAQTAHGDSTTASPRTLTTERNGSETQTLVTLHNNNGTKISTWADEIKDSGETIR

T3: human TIM-3 extracellular domain protein with hFc tag (hTIM-3-hFc) (human, UniProt Q8TDQ0 22-200)
T3 construct: not shown: human IgG Fc fragment (hFc) of the pCpC vector
T3 sequence: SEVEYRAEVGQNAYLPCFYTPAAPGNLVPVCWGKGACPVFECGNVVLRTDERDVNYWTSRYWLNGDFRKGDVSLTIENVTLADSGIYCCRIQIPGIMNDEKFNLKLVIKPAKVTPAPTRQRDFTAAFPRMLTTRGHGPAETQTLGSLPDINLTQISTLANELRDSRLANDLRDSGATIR

T4: monkey TIM-3 extracellular domain protein with hFc tag (cTIM-3-hFc) (monkey)
T4 construct: not shown: human IgG Fc fragment (hFc) of the pCpC vector
T4 chain: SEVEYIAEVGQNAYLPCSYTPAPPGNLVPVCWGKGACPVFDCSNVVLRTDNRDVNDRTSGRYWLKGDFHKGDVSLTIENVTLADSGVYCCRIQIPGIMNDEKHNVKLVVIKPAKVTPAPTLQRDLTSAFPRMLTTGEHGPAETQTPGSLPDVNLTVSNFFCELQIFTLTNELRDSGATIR


How the values were obtained:
[1] = target: T1, monkey TIM-3 on CHOK1 stable cell line …; test: FACS, CHOK1-cTIM-3 cells, 1.6 nM antibody
[2] = target: T1, monkey TIM-3 on CHOK1 stable cell line …; test: FACS, CHOK1-cTIM-3 cells, 0.064 nM antibody
[3] = target: T2, murine TIM-3 extracellular domain …; test: ELISA, coated mouse TIM-3 ECD protein, 0 nM antibody
[4] = target: T3, human TIM-3 extracellular domain …; test: ELISA, coated human TIM-3 ECD protein, 0.0001 nM antibody
[5] = target: T3, human TIM-3 extracellular domain …; test: ELISA, coated human TIM-3 ECD protein, 6.6667 nM antibody
[6] = target: T2, murine TIM-3 extracellular domain …; test: ELISA, coated mouse TIM-3 ECD protein, 0.6667 nM antibody
[7] = target: T4, monkey TIM-3 extracellular domain …; test: ELISA, coated monkey TIM-3 ECD protein, 0.0067 nM antibody
[8] = target: T4, monkey TIM-3 extracellular domain …; test: ELISA, coated monkey TIM-3 ECD protein, 6.6667 nM antibody

| Binder | Mean fluorescence intensity [1] | Mean fluorescence intensity [2] | OD450 [3] | OD450 [4] | OD450 [5] | OD450 [6] | OD450 [7] | OD450 [8] |
| --- | --- | --- | --- | --- | --- | --- | --- | --- |
| 7A4F10 fully human TIM-3 antibody (human IgG4, kappa) (antibody, V domains shown) VH: EVQLLESGGGLVQPGGSLRLSCAASGFTFRTHLISWVRQAPGKGLEWVAAITGSGGSTYYADSVKGRFIISRDNSKNTLFLQMNSLRAEDTAVYYCAKDGGSGSYDDFWGQGTLVTVSS VL: ETVLTQSPVTLSLSPGERATLSCRASQSVGSYLAWYQQKPGQAPRLLIYDASNRATGIPARFSGSGSGTDFTLTISSLEPEDFAVYYCQQRSNWPPTFGQGTKVEIK | 177 | 17.2 | 0.23 | 0.08 | 3.01 | 0.25 | 0.18 | 3.12 |
| 18D2H2 fully human TIM-3 antibody (human IgG4, kappa) (antibody, V domains shown) VH: EVQLVESGGDLVQPGGSLRLSCAASGFTFSTYWMTWVRQAPGRGLEWVANIKQDGSAKYYVDSVKGRFTLSRDDAKNSLYLQMNSLRAEDTAVYYCARGSNWFDYWGQGTLVTVSS VL: ETVMTQSPATLSVSPGERATLSCRANQNVYSNLAWYQQKPGQAPRLLIYDASTRATGFPARFSGSGSGTEFTLTISSLQSEDFAVYYCQQYNNWPLTFGGGTKVEIK | 333 | 44 | 0.22 | 0.08 | 2.61 | 0.22 | 0.33 | 3.3 |
| 34B6D8 fully human TIM-3 antibody (human IgG4, kappa) (antibody, V domains shown) VH: EVQLVESGGGLVQPGGSLRLSCAASGFTFSTYWMTWVRQAPGKRLEWVANIKQGGGDKYYVDSVKGRFTISTDNAKNSLYLQMNSLRAEDTAVYYCARGSNWFDPWGQGTLVTVSS VL: EIVMTQSPATLSMSPGERATLSCRASQSVYDNLAWYQQKPGQAPRLLIYGASTRATGIPARFSGSGSGTEFTLTISSLQSEDFALYYCQQYTHWPITFGQGTRLEIK | 266 | 35.4 | 0.24 | 0.09 | 2.99 | 0.27 | 0.37 | 3.39 |
| 39E5H1 fully human TIM-3 antibody (human IgG4, kappa) (antibody, V domains shown) VH: EVQLVESGGGLVQPGGSLRLSCAASGFTFSSYWMSWVRQAPGKGLEWVANIKRGGSERYYVDSVKGRFTISGDNAKNSVYLQMNSLRAEDTAVYYCARGSNWFDPWGQGTLVTVSS VL: ETVMTQSPAILSVSPGERATLSCRASQSVYSNLAWYQQKLGQAPRLLIYDASTRATGIPARFSGSGSGTEFTLTISSLQSEDFAVYYCQQYNNWPITFGQGTRLEIK | 315 | 42.3 | 0.24 | 0.08 | 2.95 | 0.26 | 0.3 | 3.35 |
